The results in this text go back to US7563582 (Sanofi, dated 2009).

The assay concerns the target T1, GST-zyxin(1-142) (UniProt Q15942 1-142).
T1 construct: Expressed in E. coli; also called zyxin derivative; GST fusion protein with the N-terminus of zyxin; not shown: glutathione S-transferase
T1 sequence (looked up): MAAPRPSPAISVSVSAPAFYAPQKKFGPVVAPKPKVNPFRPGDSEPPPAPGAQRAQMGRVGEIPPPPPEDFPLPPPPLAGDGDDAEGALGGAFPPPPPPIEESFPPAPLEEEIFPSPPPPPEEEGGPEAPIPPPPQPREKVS
In words: solid-phase assay (DELFIA) in 384-well plates, 20 µl per well, GST-zyxin(1-142) coated, VASP as ligand. As for the experimental part:
In the solid-phase assay, a binding partner (VASP or zyxin) was immobilized on the surface of a microtiter plate (MTP) (=coating). The unsaturated binding sites on the surface of the plastic were blocked, and the surface was then incubated with the respective other binding partners. After the incubation, excess unattached protein was removed in a washing step. Using suitable antibodies, it was now possible to detect and quantify the specifically bound protein. Here, it was possible to improve the signal-noise (S/N) ratio considerably by using lanthanide chelates as fluorescent labels for the antibodies and the measurement of the time-resolved fluorescence.
The volume per well used depended on the selected MTP format (50 µl or 100 µl for 96-well plates, 20 µl for 384-well plates).

B1: recombinant human VASP protein with complete amino acid sequence obtained from insect cells (other, UniProt P50552 2-380, looked up)
chain: SETVICSSRATVMLYDDGNKRWLPAGTGPQAFSRVQIYHNPTANSFRVVGRKMQPDQQVVINCAIVRGVKYNQATPNFHQWRDARQVWGLNFGSKEDAAQFAAGMASALEALEGGGPPPPPALPTWSVPNGPSPEEVEQQKRQQPGPSEHIERRVSNAGGPPAPPAGGPPPPPGPPPPPGPPPPPGLPPSGVPAAAHGAGGGPPPAPPLPAAQGPGGGGAGAPGLAAAIAGAKLRKVSKQEEASGGPTAPKAESGRSGGGGLMEEMNAMLARRRKATQVGEKTPKDESANQEEPEARVPAQSESVRRPWEKNSTTLPRMKSSSSVTTSETQPCTPSSSDYSDLQRVKQELLEEVKKELQKVKEEIIEAFVQELRKRGSP
notes: mature; also called baculo VASP; vasodilator-stimulated phosphoprotein
Take B1: the S/N ratio is approximately 100.
